Measurements: patent CN116963747A (UNIV TEXAS, dated 2023)

B1: HA-TRAF2 (other, human, UniProt Q12933 1-501, looked up)
chain: MAAASVTPPGSLELLQPGFSKTLLGTKLEAKYLCSACRNVLRRPFQAQCGHRYCSFCLASILSSGPQNCAACVHEGIYEEGISILESSSAFPDNAARREVESLPAVCPSDGCTWKGTLKEYESCHEGRCPLMLTECPACKGLVRLGEKERHLEHECPERSLSCRHCRAPCCGADVKAHHEVCPKFPLTCDGCGKKKIPREKFQDHVKTCGKCRVPCRFHAIGCLETVEGEKQQEHEVQWLREHLAMLLSSVLEAKPLLGDQSHAGSELLQRCESLEKKTATFENIVCVLNREVERVAMTAEACSRQHRLDQDKIEALSSKVQQLERSIGLKDLAMADLEQKVLEMEASTYDGVFIWKISDFARKRQEAVAGRIPAIFSPAFYTSRYGYKMCLRIYLNGDGTGRGTHLSLFFVVMKGPNDALLRWPFNQKVTLMLLDQNNREHVIDAFRPDVTSSSFQRPVNDMNIASGCPLFCPVSKMEAKNSYVRDDAIFIKAIVDLTGL
notes: also called 外源HA-TRAF2; not shown: HA tag
B2: SHP-1 (enzyme)
chain: not shown
notes: also called 内源性SHP-1; 外源SHP-1
B3: B3ICDhFc (LILRB3胞内结构域, C末端与hFc融合) (Fc fusion, human, UniProt O75022 465-631, looked up)
chain: RRQRHSKHRTSDQRKTDFQRPAGAAETEPKDRGLLRRSSPAADVQEENLYAAVKDTQSEDRVELDSQSPHDEDPQAVTYAPVKHSSPRREMASPPSSLSGEFLDTKDRQVEEDRQMDTEAAASEASQDVTYAQLHSLTLRRKATEPPPSQEGEPPAEPSIYATLAIH
notes: domain: 胞内结构域; Purified for the in vitro pull-down with GST-TRAF2; not shown: human Fc (hFc) fused at the C-terminus
B4: TRAF2 (other, human, UniProt Q12933 2-501, looked up)
chain: AAASVTPPGSLELLQPGFSKTLLGTKLEAKYLCSACRNVLRRPFQAQCGHRYCSFCLASILSSGPQNCAACVHEGIYEEGISILESSSAFPDNAARREVESLPAVCPSDGCTWKGTLKEYESCHEGRCPLMLTECPACKGLVRLGEKERHLEHECPERSLSCRHCRAPCCGADVKAHHEVCPKFPLTCDGCGKKKIPREKFQDHVKTCGKCRVPCRFHAIGCLETVEGEKQQEHEVQWLREHLAMLLSSVLEAKPLLGDQSHAGSELLQRCESLEKKTATFENIVCVLNREVERVAMTAEACSRQHRLDQDKIEALSSKVQQLERSIGLKDLAMADLEQKVLEMEASTYDGVFIWKISDFARKRQEAVAGRIPAIFSPAFYTSRYGYKMCLRIYLNGDGTGRGTHLSLFFVVMKGPNDALLRWPFNQKVTLMLLDQNNREHVIDAFRPDVTSSSFQRPVNDMNIASGCPLFCPVSKMEAKNSYVRDDAIFIKAIVDLTGL
notes: also called 内源TRAF2

What was measured:
[1] = molecular target: T1, LILRB3 QEE509-511AAA突变体 (human, UniProt O75022 24-631); experiment: co-IP in 293T cells
T1 construct: It is probably hFc-fused like the other LILRB3 constructs; also called B3AAA

[2] = molecular target: 氨基酸505-515缺失的LILRB3 (human, UniProt O75022 24-631); experiment: co-IP in 293T cells
[3] = molecular target: T2, LILRB3-hFc (全长LILRB3, C末端hFc标签) (human, UniProt O75022 24-631); experiment: co-IP of HA-TRAF2 with hFc-fused LILRBs in 293T cells
T2 construct: whole, on cells; also called hFc加标签的B3-FL; not shown: human Fc (hFc) fused at the C-terminus in the pFLAG-CMV5.1 vector

[4] = molecular target: T2, LILRB3-hFc (全长LILRB3, C末端hFc标签); experiment: co-IP in THP-1 cells stably expressing LILRB3-hFc
[5] = molecular target: B1; experiment: co-IP in 293T cells with or without FLAG-A20N (Fig 6j)
[6] = molecular target: FLAG-cFLIP (human, UniProt O15519 1-480); experiment: co-IP in 293T cells
[7] = molecular target: T3, LILRB3 (白细胞免疫球蛋白样受体亚家族B成员3), full length (human, UniProt O75022 24-631); experiment: co-IP from primary M5 AML cells with human anti-LILRB3 antibody
T3 construct: whole, on cells; also called B3-FL; 全长LILRB3

[8] = molecular target: T2, LILRB3-hFc (全长LILRB3, C末端hFc标签); experiment: co-IP of endogenous TRAF2 with LILRB3-hFc in THP-1 cells, with LPS or PBS

Chain of FLAG-cFLIP (O15519 whole entry): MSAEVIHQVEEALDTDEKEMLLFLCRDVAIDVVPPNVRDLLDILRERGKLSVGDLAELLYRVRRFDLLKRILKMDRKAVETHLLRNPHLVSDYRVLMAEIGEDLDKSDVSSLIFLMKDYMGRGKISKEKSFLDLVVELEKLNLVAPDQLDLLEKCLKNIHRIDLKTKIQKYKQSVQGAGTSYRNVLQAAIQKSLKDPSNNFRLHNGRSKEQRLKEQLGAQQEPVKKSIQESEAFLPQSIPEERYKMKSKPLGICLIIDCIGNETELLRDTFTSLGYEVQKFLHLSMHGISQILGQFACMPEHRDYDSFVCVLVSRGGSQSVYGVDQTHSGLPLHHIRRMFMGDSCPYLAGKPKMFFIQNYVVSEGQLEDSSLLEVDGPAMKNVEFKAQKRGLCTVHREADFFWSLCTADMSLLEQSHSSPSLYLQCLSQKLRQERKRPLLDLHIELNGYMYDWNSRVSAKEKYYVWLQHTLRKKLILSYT

B1
binding result [1]: no binding | binding result [2]: no binding | binding result [3]: binds

B2
binding result [4]: binds

B3
binding result [5]: binds | binding result [6]: no binding

B4
binding result [7]: binds | binding result [8]: binds
